# Data taken from paper PMC7718890, “High-throughput screening to discover inhibitors of the CarD·RNA polymerase protein–protein interaction in Mycobacterium tuberculosis” (Scientific Reports, 2020).
# Molecular target: Mycobacterium tuberculosis RNA polymerase, wild type (Mycobacterium tuberculosis) (UniProt P9WGY9)
# Test: FP
substance,measurement,value
CarD T24C labelled with BODIPY-FL,Kd,56 nM
